Reference: US20080214408A1

Columns and labels:
[1] = target: GFP-Tus-His6 fusion protein (E. coli) (UniProt P16525); experiment: protein microarray, fluorescence; fusion protein made in situ and held on plasmid with wild-type Ter site, detected with Cy3-labeled anti-his antibody
[2] = target: GFP-Tus-His6 fusion protein (E. coli) (UniProt P16525); experiment: protein microarray, fluorescence; fusion protein made in situ and held on plasmid with wild-type Ter site, detected with Cy5-labeled anti-his antibody
[3] = target: GFP-Tus-His6 fusion protein (E. coli) (UniProt P16525); experiment: protein microarray, fluorescence; fusion protein made in situ and held on plasmid with mutant Ter site (SEQ ID NO: 12), detected with Cy3-labeled anti-his antibody
[4] = target: GFP-Tus-His6 fusion protein (E. coli) (UniProt P16525); experiment: protein microarray, fluorescence; fusion protein made in situ and held on plasmid with mutant Ter site (SEQ ID NO: 12), detected with Cy5-labeled anti-his antibody

Cy3 Signal Intensity (Background subtracted) (arbitrary units) [1]: 20600
Cy5 Signal Intensity (Background subtracted) (arbitrary units) [2]: 14000
Cy3 Signal Intensity (Background subtracted) (arbitrary units) [3]: 10900
Cy5 Signal Intensity (Background subtracted) (arbitrary units) [4]: 4740
Substance: monoclonal antibody to the poly-his tag (Sigma-Aldrich), labeled with Cy3 or Cy5
